From patent US20140105889A1 (published 2014)
Substitutions are numbered along the chain they refer to. Names may count otherwise.

T1: human FcγRIIb (human, UniProt P31994 43-217)
T1 construct: also called FcγIIB
T1 sequence: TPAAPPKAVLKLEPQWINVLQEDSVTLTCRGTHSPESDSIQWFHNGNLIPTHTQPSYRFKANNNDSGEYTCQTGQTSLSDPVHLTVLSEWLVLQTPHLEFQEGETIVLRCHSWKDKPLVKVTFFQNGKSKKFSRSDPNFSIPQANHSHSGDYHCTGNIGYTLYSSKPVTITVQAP

T2: human FcγRIIa type H (human, UniProt P12318 36-217)
T2 construct: Whole entry named for FcγRIIa allotype H131 (AAH20823.1); also called FcγRIIaH; FcγRIIa(H)
T2 sequence: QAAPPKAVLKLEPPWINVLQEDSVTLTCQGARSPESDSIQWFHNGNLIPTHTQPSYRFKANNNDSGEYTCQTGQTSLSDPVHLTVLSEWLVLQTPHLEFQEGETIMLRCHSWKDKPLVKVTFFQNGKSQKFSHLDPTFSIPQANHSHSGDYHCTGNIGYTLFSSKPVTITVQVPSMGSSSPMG

T3: human FcγRIIa type R (human, UniProt P12318 36-217)
T3 construct: also called FcγRIIaR; FcγRIIa(R)
T3 chain: T2 sequence with H133R

T4: human FcγRIIa type H (human, UniProt P12318 36-217)
T4 construct: also called FcgRIIaH; FcγRIIa(H)
T4 sequence: T2 sequence

T5: human FcγRIIb (human, UniProt P31994 43-217, limits assumed)
T5 construct: also called FcgRIIb; FcγIIB
T5 sequence: T1 sequence

B1: IL6R-BP103/IL6R-L (antibody, human IgG1)
heavy: QVQLQESGPGLVKPSETLSLTCAVSGHSISHDHAWSWVRQPPGEGLEWIGFISYSGITNYNPSLQGRVTISRDNSKNTLYLQMNSLRAEDTAVYYCARSLARTTAMDYWGEGTLVTVSSASTKGPSVFPLAPSSKSTSGGTAALGCLVKDYFPEPVTVSWNSGALTSGVHTFPAVLQSSGLYSLSSVVTVPSSSLGTQTYICNVNHKPSNTKVDKKVEPKSCDKTHTCPPCPAPELLGGDSVFLFPPKPKDTLMISRTPEVTCVVVDVVHEDPEVKFNWYVDGVEVHNAKTKPREEQYNSTYRVVSVLTVLHQDWLNGKEYKCKVSNKALPAPIEKTISKAKGQPREPQVYTLPPSRDELTKNQVSLTCLVKGFYPSDIAVEWESNGQPENNYKTTPPVLDSDGSFFLYSKLTVDKSRWQQGNVFSCSVMHEALHNHYTQESLSLSP
light: DIQMTQSPSSLSASVGDRVTITCRASQDISSYLNWYQQKPGKAPKLLIYYTSRLHSGVPSRFSGSGSGTDFTFTISSLQPEDIATYYCQQGNTLPYTFGQGTKVEIK
notes: copies: 2 + 2
B2: IL6R-BF648/IL6R-L (antibody, human IgG1)
heavy: not shown
light: B1 light
notes: IL6R-B3 with P238D; copies: 2 + 2
B3: IL6R-BP912/IL6R-L (antibody, human IgG1)
heavy: B1 heavy with V269S, A332R
light: B1 light
notes: copies: 2 + 2
B4: IL6R-G1d/IL6R-L (antibody, human IgG1)
heavy: not shown
light: B1 light
notes: Anti-human IL-6 receptor IgG1 with G1d constant region (C-terminal Gly and Lys removed); also called IgG1; copies: 2 + 2
B5: IL6R-BP119/IL6R-L (antibody, human IgG1)
heavy: B1 heavy with V269S, K328M
light: B1 light
notes: copies: 2 + 2
B6: IL6R-BP116/IL6R-L (antibody, human IgG1)
heavy: B1 heavy with V269S, K328T
light: B1 light
notes: copies: 2 + 2
B7: IL6R-BP121/IL6R-L (antibody, human IgG1)
heavy: B1 heavy with V269S, K328Q
light: B1 light
notes: copies: 2 + 2
B8: IL6R-BP110/IL6R-L (antibody, human IgG1)
heavy: B1 heavy with V269S, H270N
light: B1 light
notes: copies: 2 + 2
B9: IL6R-BP118/IL6R-L (antibody, human IgG1)
heavy: B1 heavy with V269S, K328S
light: B1 light
notes: copies: 2 + 2
B10: IL6R-BP213/IL6R-L (antibody, human IgG1)
heavy: B1 heavy with E235D, V269S, H270D, P273G, A332R
light: B1 light
notes: The common L chain is IL6R-L; copies: 2 + 2
B11: IL6R-BP190/IL6R-L (antibody, human IgG1)
heavy: B1 heavy with G239D, V269S, H270D, P273G, A332K
light: B1 light
notes: as for B10
B12: IL6R-BP192/IL6R-L (antibody, human IgG1)
heavy: B1 heavy with E235D, V269S, H270D, P273G, Y298D, A332K
light: B1 light
notes: as for B10
B13: IL6R-BP187/IL6R-L (antibody, human IgG1)
heavy: B1 heavy with L236Y, V269S, P273G, K328A, A332K
light: B1 light
notes: as for B10
B14: IL6R-BP194/IL6R-L (antibody, human IgG1)
heavy: B1 heavy with E235D, L236Y, G239D, V269S, H270D, P273G, K328A, A332K
light: B1 light
notes: as for B10
B15: IL6R-BP189/IL6R-L (antibody, human IgG1)
heavy: B1 heavy with G239D, V269S, H270D, P273G, K328A, A332K
light: B1 light
notes: as for B10
B16: IL6R-BP197/IL6R-L (antibody)
heavy: B1 heavy with E235D, L236Y, G239D, V269S, H270D, P273G, Y298D, K328D, A332K
light: B1 light
notes: copies: 2 + 2
B17: IL6R-BP211/IL6R-L (antibody, human IgG1)
heavy: B1 heavy with E235D, V269S, H270D, P273G, K328A, A332R
light: B1 light
notes: as for B10
B18: IL6R-BP195/IL6R-L (antibody, human IgG1)
heavy: B1 heavy with E235D, L236Y, G239D, V269S, H270D, P273G, Y298D, K328A, A332K
light: B1 light
notes: as for B10
B19: IL6R-BP191/IL6R-L (antibody, human IgG1)
heavy: B1 heavy with E235D, V269S, H270D, P273G, K328A, A332K
light: B1 light
notes: as for B10
B20: IL6R-BP196/IL6R-L (antibody, human IgG1)
heavy: B1 heavy with L236Y, V269S, H270D, P273G, K328A, A332K
light: B1 light
notes: as for B10

molecular target: T6, human FcγRIa (human, UniProt P12314 16-292, limits assumed); assay: SPR (Biacore), FcγR over captured antibody; amount bound relative to IL6R-BF648/IL6R-L x100
T6 construct: also called CD64
T6 sequence (P12314 16-292 limits assumed): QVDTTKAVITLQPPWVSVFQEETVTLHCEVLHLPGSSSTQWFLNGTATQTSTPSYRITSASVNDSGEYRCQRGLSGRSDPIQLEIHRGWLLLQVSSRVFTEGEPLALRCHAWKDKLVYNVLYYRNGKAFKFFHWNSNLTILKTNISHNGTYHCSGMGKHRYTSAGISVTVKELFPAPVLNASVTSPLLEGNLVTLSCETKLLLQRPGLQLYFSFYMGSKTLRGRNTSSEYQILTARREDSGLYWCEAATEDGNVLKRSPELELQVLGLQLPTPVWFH

In order of rising relative binding:
1. B1  56 relative value (IL6R-BF648/IL6R-L = 100)
2. B3  60 relative value (IL6R-BF648/IL6R-L = 100)
3. B2  100 relative value (IL6R-BF648/IL6R-L = 100)
4. B9  101 relative value (IL6R-BF648/IL6R-L = 100)
5. B8  105 relative value (IL6R-BF648/IL6R-L = 100)
6. B6  110 relative value (IL6R-BF648/IL6R-L = 100)
7. B5  117 relative value (IL6R-BF648/IL6R-L = 100)
8. B7  118 relative value (IL6R-BF648/IL6R-L = 100)
9. B4  140 relative value (IL6R-BF648/IL6R-L = 100)

molecular target: T1, human FcγRIIb; assay: as above

In order of rising relative binding:
1. B4  62 relative value (IL6R-BF648/IL6R-L = 100)
2. B2  100 relative value (IL6R-BF648/IL6R-L = 100)
3. B8  101 relative value (IL6R-BF648/IL6R-L = 100)
4. B3  103 relative value (IL6R-BF648/IL6R-L = 100)
5. B9  104 relative value (IL6R-BF648/IL6R-L = 100)
6. B1  107 relative value (IL6R-BF648/IL6R-L = 100)
7. B6  108 relative value (IL6R-BF648/IL6R-L = 100)
8. B5  110 relative value (IL6R-BF648/IL6R-L = 100)
9. B7  113 relative value (IL6R-BF648/IL6R-L = 100)

molecular target: T7, human FcγRIIIa type V (human, UniProt P08637 17-208, limits assumed); assay: as above
T7 construct: also called FcγRIIIaV; FcγRIIIa(V)
T7 sequence (P08637 other isoform, or with tags, fused parts or gaps limits assumed): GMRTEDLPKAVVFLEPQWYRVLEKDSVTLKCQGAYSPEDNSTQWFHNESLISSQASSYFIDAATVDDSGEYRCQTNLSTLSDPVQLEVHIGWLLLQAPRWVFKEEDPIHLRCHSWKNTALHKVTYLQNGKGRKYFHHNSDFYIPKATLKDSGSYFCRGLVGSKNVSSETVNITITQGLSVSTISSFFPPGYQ

In order of rising relative binding:
1. B1  77 relative value (IL6R-BF648/IL6R-L = 100)
2. B3  97 relative value (IL6R-BF648/IL6R-L = 100)
3. B2  100 relative value (IL6R-BF648/IL6R-L = 100)
4. B6  114 relative value (IL6R-BF648/IL6R-L = 100)
5. B8  127 relative value (IL6R-BF648/IL6R-L = 100)
6. B9  144 relative value (IL6R-BF648/IL6R-L = 100)
7. B5  145 relative value (IL6R-BF648/IL6R-L = 100)
8. B7  157 relative value (IL6R-BF648/IL6R-L = 100)
9. B4  3350 relative value (IL6R-BF648/IL6R-L = 100)

molecular target: T2, human FcγRIIa type H; assay: as above

In order of falling relative binding:
1. B4  1670 relative value (IL6R-BF648/IL6R-L = 100)
2. B7  135 relative value (IL6R-BF648/IL6R-L = 100)
3. B5  133 relative value (IL6R-BF648/IL6R-L = 100)
4. B9  128 relative value (IL6R-BF648/IL6R-L = 100)
5. B8  127 relative value (IL6R-BF648/IL6R-L = 100)
6. B6  110 relative value (IL6R-BF648/IL6R-L = 100)
7. B2  100 relative value (IL6R-BF648/IL6R-L = 100)
8. B3  93 relative value (IL6R-BF648/IL6R-L = 100)
9. B1  69 relative value (IL6R-BF648/IL6R-L = 100)

Molecular target: T3, human FcγRIIa type R
Assay: as above

In order of falling relative binding:
1. B4  650 relative value (IL6R-BF648/IL6R-L = 100)
2. B5  181 relative value (IL6R-BF648/IL6R-L = 100)
3. B1  163 relative value (IL6R-BF648/IL6R-L = 100)
4. B7  155 relative value (IL6R-BF648/IL6R-L = 100)
5. B9  132 relative value (IL6R-BF648/IL6R-L = 100)
6. B8  128 relative value (IL6R-BF648/IL6R-L = 100)
7. B6  126 relative value (IL6R-BF648/IL6R-L = 100)
8. B2  100 relative value (IL6R-BF648/IL6R-L = 100)
9. B3  81 relative value (IL6R-BF648/IL6R-L = 100)

molecular target: T8, human FcγRIIIa type V (human, UniProt P08637 17-208, limits assumed); assay: SPR (Biacore); binding amount divided by that of control IL6R-BF648/IL6R-L, x100
T8 construct: The assay used allotype V158; also called FcgRIIIaV; FcγRIIIa(V)
T8 sequence (P08637 other isoform, or with tags, fused parts or gaps limits assumed): as above
Method: (§1) According to the following method, relative binding activities were calculated for the results of analyzing interactions with the respective FcγRs.

In order of rising relative binding activity:
1. B17  87 % of IL6R-BF648/IL6R-L
2. B10  100 % of IL6R-BF648/IL6R-L
3. B12  118 % of IL6R-BF648/IL6R-L
4. B13  124 % of IL6R-BF648/IL6R-L
5. B20  137 % of IL6R-BF648/IL6R-L
6. B15  141 % of IL6R-BF648/IL6R-L
7. B19  142 % of IL6R-BF648/IL6R-L
8. B11  155 % of IL6R-BF648/IL6R-L
9. B16  206 % of IL6R-BF648/IL6R-L
10. B18  221 % of IL6R-BF648/IL6R-L
11. B14  249 % of IL6R-BF648/IL6R-L

molecular target: T4, human FcγRIIa type H; assay: as above
Method: as §1

In order of rising relative binding activity:
1. B12  122 % of IL6R-BF648/IL6R-L
2. B10  123 % of IL6R-BF648/IL6R-L
3. B19  145 % of IL6R-BF648/IL6R-L
4. B15  183 % of IL6R-BF648/IL6R-L
5. B20  195 % of IL6R-BF648/IL6R-L
6. B13  205 % of IL6R-BF648/IL6R-L
7. B11  224 % of IL6R-BF648/IL6R-L
8. B16  294 % of IL6R-BF648/IL6R-L
9. B18  344 % of IL6R-BF648/IL6R-L
10. B14  395 % of IL6R-BF648/IL6R-L

molecular target: T5, human FcγRIIb; assay: as above
Method: as §1

In order of rising relative binding activity:
1. B13  157 % of IL6R-BF648/IL6R-L
2. B20  157 % of IL6R-BF648/IL6R-L
3. B17  165 % of IL6R-BF648/IL6R-L
4. B10  169 % of IL6R-BF648/IL6R-L
5. B12  172 % of IL6R-BF648/IL6R-L
6. B15  177 % of IL6R-BF648/IL6R-L
7. B14  178 % of IL6R-BF648/IL6R-L
8. B16  179 % of IL6R-BF648/IL6R-L

molecular target: T9, human FcγRIa (human, UniProt P12314 16-292, limits assumed); assay: as above
T9 construct: also called FcgRIa; CD64
T9 sequence (P12314 16-292 limits assumed): as the sequence (P12314 16-292 limits assumed) above
Method: as §1

In order of falling relative binding activity:
1. B17  128 % of IL6R-BF648/IL6R-L
2. B19  125 % of IL6R-BF648/IL6R-L
3. B10  118 % of IL6R-BF648/IL6R-L
4. B12  109 % of IL6R-BF648/IL6R-L
5. B20  89 % of IL6R-BF648/IL6R-L
6. B16  71 % of IL6R-BF648/IL6R-L
7. B14  69 % of IL6R-BF648/IL6R-L
8. B13  68 % of IL6R-BF648/IL6R-L
9. B18  68 % of IL6R-BF648/IL6R-L
10. B15  56 % of IL6R-BF648/IL6R-L
11. B11  50 % of IL6R-BF648/IL6R-L
